Results as given in article PMC5493677, “The role of the FliD C-terminal domain in pentamer formation and interaction with FliT” (Scientific Reports, 2017).
Where a chain is given by its changes, count along the chain named.

T1: StFliD_(1–467) L443R mutant (Salmonella Typhimurium, UniProt P16328 1-467, L443R)
T1 construct: FliD of Salmonella Typhimurium, residues 1–467, with L443R; Monomer by SEC-MALS; also called StFliD L443R; FliD (L443R)
T1 sequence: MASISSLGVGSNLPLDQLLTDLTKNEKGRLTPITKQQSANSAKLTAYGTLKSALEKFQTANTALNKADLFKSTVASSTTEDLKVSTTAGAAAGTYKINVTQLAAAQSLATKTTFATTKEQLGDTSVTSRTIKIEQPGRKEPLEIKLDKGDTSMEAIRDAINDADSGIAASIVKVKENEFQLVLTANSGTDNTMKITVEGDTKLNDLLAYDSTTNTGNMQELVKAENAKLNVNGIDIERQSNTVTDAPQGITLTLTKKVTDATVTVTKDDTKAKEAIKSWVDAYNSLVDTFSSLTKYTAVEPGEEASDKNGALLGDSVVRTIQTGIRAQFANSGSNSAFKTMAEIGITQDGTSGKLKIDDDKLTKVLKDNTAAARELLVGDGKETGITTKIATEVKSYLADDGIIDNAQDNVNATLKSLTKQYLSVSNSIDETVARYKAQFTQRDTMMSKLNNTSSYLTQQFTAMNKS

B1: StFliD_(45–467) (domain or fragment)
chain: TAYGTLKSALEKFQTANTALNKADLFKSTVASSTTEDLKVSTTAGAAAGTYKINVTQLAAAQSLATKTTFATTKEQLGDTSVTSRTIKIEQPGRKEPLEIKLDKGDTSMEAIRDAINDADSGIAASIVKVKENEFQLVLTANSGTDNTMKITVEGDTKLNDLLAYDSTTNTGNMQELVKAENAKLNVNGIDIERQSNTVTDAPQGITLTLTKKVTDATVTVTKDDTKAKEAIKSWVDAYNSLVDTFSSLTKYTAVEPGEEASDKNGALLGDSVVRTIQTGIRAQFANSGSNSAFKTMAEIGITQDGTSGKLKIDDDKLTKVLKDNTAAARELLVGDGKETGITTKIATEVKSYLADDGIIDNAQDNVNATLKSLTKQYLSVSNSIDETVARYKAQFTQLDTMMSKLNNTSSYLTQQFTAMNKS
notes: FliD of Salmonella Typhimurium, residues 45–467
B2: StFliD_(401–467) (domain or fragment)
chain: DGIIDNAQDNVNATLKSLTKQYLSVSNSIDETVARYKAQFTQLDTMMSKLNNTSSYLTQQFTAMNKS
notes: FliD of Salmonella Typhimurium, residues 401–467; The eluate was cleaved by TEV protease; also called C-terminal helix of StFliD; source: E. coli BL21(DE3), co-expressed with StFliT 1–94, co-purified (glutathione-Sepharose, TEV, Hitrap Q, Superdex 200)
B3: StFliD_(1–467), full-length FliD from Salmonella Typhimurium, wild type (natural protein)
chain: T1 sequence with R443L
notes: FliD (HAP2, flagellar filament capping protein) of Salmonella Typhimurium, residues 1–467; also called StFliD WT; HAP2; source: E. coli BL21(DE3); co-expressed with StFliT 1–94 and co-purified (glutathione-Sepharose, TEV, Hitrap Q, Superdex 200) for the complex
B4: StFliD_(1–300) (domain or fragment)
chain: MASISSLGVGSNLPLDQLLTDLTKNEKGRLTPITKQQSANSAKLTAYGTLKSALEKFQTANTALNKADLFKSTVASSTTEDLKVSTTAGAAAGTYKINVTQLAAAQSLATKTTFATTKEQLGDTSVTSRTIKIEQPGRKEPLEIKLDKGDTSMEAIRDAINDADSGIAASIVKVKENEFQLVLTANSGTDNTMKITVEGDTKLNDLLAYDSTTNTGNMQELVKAENAKLNVNGIDIERQSNTVTDAPQGITLTLTKKVTDATVTVTKDDTKAKEAIKSWVDAYNSLVDTFSSLTKYTAVE
notes: FliD of Salmonella Typhimurium, residues 1–300; Dimer at 100 μM by SEC-MALS; source: cloned into pRSF-duet
B5: StFliT_(1–94), C-terminus-truncated FliT from Salmonella Typhimurium (domain or fragment)
chain: MTSTVEFINRWQRIALLSQSLLELAQRGEWDLLLQQEVSYLQSIETVMEKQTPPGITRSIQDMVAGYIKQTLDNEQLLKGLLQQRLDELSSLIG
notes: FliT (flagellar export chaperone) of Salmonella Typhimurium, residues 1–94; At the glutathione-Sepharose step of the co-purification the GST tag was still on; it was cut by TEV protease before ion exchange and gel filtration; source: E. coli BL21(DE3); purified alone (glutathione-Sepharose, TEV cleavage, gel filtration) for ITC; co-expressed with StFliD constructs and co-purified for the …

Experiments:
[1] = molecular target: the molecule itself; test: SAXS; purified proteins and co-purified complexes, 1.0–10.0 mg/mL, 4 °C; ab initio envelopes (DAMMIF)
[2] = molecular target: B5; test: SEC-MALS; co-purified complexes (Fig. 1b), concentration not given; Superdex 200 10/300 GL in buffer A (20 mM Tris-HCl pH 8.0, 200 mM NaCl), 0.4 mL/min; settings: both partners purified
[3] = molecular target: B5; test: SEC-MALS; samples at 10 μM (Fig. 2c); Superdex 200 10/300 GL in buffer A (20 mM Tris-HCl pH 8.0, 200 mM NaCl), 0.4 mL/min; settings: both partners purified
[4] = molecular target: B5; test: SEC-MALS; samples at 100 μM (Fig. 2c); Superdex 200 10/300 GL in buffer A (20 mM Tris-HCl pH 8.0, 200 mM NaCl), 0.4 mL/min; settings: both partners purified
[5] = molecular target: the molecule itself; test: as above
[6] = molecular target: B3; test: ITC; 170 μM StFliT 1–94 injected (2.5 μL, every 200 s) into 26 μM StFliD in the cell; 298 K; buffer A (20 mM Tris-HCl pH 8.0, 200 mM NaCl); settings: both partners purified
[7] = molecular target: T1, StFliD_(1–467) L443R mutant; test: as above; settings: both partners purified

B1
binding result [1]: binds

B2
stoichiometry N [2]: 1 StFliD per StFliT

B3
stoichiometry N [3]: 1 StFliD per StFliT | stoichiometry N [4]: 1 StFliD per StFliT (2:2)

B4
stoichiometry N [5]: 2

B5
Kd [6]: 235.1 ± 0.8 nM | Kd [7]: 3010 ± 100 nM
